Reference: article PMC5995851, “Conformational rearrangements of the C1 ring in KaiC measure the timing of assembly with KaiB” (Scientific Reports, 2018)

Assays:
[1] = target: T1, KaiC^S157W-D/T (S157W/S431D, pS/T mimic) (Synechococcus elongatus, UniProt Q79PF4 1-519, S157W | S431D); test: tryptophan (W157) fluorescence quenching; KaiC^S157W phospho-mimicking mutants with or without an equimolar concentration of KaiB (monomer basis), spectra after 24 h incubation at 30 °C; 50 mM Tris, 150 mM NaCl, 5 mM MgCl2, 0.5 mM EDTA, 1 mM ATP, pH 8.0; excitation 295 nm; conditions: both partners purified
T1 construct: Circadian clock protein KaiC, Synechococcus elongatus, with C1 and C2 domains; Trp probe S157W and phospho-mimicking S431D
T1 sequence: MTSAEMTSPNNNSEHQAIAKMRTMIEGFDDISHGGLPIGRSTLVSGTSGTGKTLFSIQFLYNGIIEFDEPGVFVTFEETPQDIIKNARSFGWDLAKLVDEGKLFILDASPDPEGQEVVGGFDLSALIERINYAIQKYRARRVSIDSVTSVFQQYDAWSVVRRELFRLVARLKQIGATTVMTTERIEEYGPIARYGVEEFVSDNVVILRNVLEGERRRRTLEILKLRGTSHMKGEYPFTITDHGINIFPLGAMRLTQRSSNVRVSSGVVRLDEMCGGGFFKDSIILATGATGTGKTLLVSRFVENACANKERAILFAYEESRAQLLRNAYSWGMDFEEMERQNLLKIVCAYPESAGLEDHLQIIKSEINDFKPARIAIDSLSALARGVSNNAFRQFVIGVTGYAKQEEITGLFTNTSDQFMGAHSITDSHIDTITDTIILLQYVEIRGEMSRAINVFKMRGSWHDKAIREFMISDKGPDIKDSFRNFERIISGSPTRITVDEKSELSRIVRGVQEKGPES

[2] = target: T2, KaiC^S157W-D/E (S157W/S431D/T432E, pS/pT mimic) (Synechococcus elongatus, UniProt Q79PF4 1-519, S157W | S431D | T432E); test: other fluorescence titration; time-resolved W157 fluorescence at 30 °C after addition of KaiB to KaiC pre-incubated at 30 °C for at least 2 h; KaiC^S157W-D/E fixed at 3.5 µM, KaiB equimolar or 0.9-10.5 µM; 1 mM ATP buffer, pH 8.0; conditions: both partners purified
T2 construct: Circadian clock protein KaiC, Synechococcus elongatus, with C1 and C2 domains; Trp probe S157W and phospho-mimicking S431D/T432E
T2 sequence: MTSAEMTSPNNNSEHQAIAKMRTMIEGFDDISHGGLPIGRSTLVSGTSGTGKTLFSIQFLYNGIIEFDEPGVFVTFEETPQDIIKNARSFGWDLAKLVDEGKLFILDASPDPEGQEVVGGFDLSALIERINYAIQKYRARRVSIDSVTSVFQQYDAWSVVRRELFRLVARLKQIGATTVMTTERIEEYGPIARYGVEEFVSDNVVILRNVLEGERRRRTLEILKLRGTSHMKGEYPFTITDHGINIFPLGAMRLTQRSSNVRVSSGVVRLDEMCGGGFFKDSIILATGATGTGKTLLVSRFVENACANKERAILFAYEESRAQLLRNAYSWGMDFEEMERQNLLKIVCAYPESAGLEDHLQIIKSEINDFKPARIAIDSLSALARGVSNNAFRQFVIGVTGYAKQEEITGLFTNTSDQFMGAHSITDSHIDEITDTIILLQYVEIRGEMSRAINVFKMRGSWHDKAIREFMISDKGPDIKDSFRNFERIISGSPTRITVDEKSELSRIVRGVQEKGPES

- binding result [1]: binds
- t1/2 of the FIapp decrease after addition of equimolar KaiB [2]: 2.4 h
B1: KaiB (wild type) (natural protein, Synechococcus elongatus, UniProt Q79PF5 1-102, looked up)
chain: MSPRKTYILKLYVAGNTPNSVRALKTLKNILEVEFQGVYALKVIDVLKNPQLAEEDKILATPTLAKVLPLPVRRIIGDLSDREKVLIGLDLLYGELQDSDDF
notes: Circadian clock protein KaiB, Synechococcus elongatus, wild type
